The target in test [1] is bovine lactoferrin purified from bovine colostrum as the high molecular weight biomacromolecular complex (HMW-bLf) (bovine). Put plainly: SDS-PAGE and Western blot; 3 mg mL^-1 HMW-bLf in 50 mM Tris HCl pH 7.5 with 1 M NaCl, 1 day at 37°C; gradient SDS-PAGE (reducing gel), blot probed with goat anti-bLf. (A western blot detects proteins with antibodies after separation by electrophoresis.)

The target in test [2] is native monomeric bovine lactoferrin (NM-bLf) (bovine). The experiment in a line: SDS-PAGE; NM-bLf stored at high concentration; denaturing SDS-PAGE; data not shown.

“And” between values parts separate entries of the source, which are not always exact repeats. Equal values may be shown once.

As to “bovine lactoferrin purified from bovine colostrum as the high molecular weight biomacromolecular complex (HMW-bLf) (natural protein)”, in test [1], the stoichiometry N was 2.

Turning to “native monomeric bovine lactoferrin (NM-bLf) (natural protein)”, the stoichiometry N in test [2] was 3 and 2.

As usually defined, the stoichiometry N is a count of units in the complex or per binding partner.
